These results are taken from ChEMBL document CHEMBL1122882, “3,4-O-diacetylisoproterenol. Preparation, structure proof, and beta-receptor effect” (1985).

Data set [1] has as its system CC(=O)Oc1ccc(C(Cl)CNC(C)C)cc1OC(C)=O. To be noted: Cerebral cortex.
Description: (§1) Evaluated for the affinity in stimulating cAMP synthesis by beta-1 adrenergic receptor in rat cerebral cortex.
Data set [2] has as its system CC(=O)Oc1ccc(C(O)CNC(C)C)cc1OC(C)=O. To be noted: Cerebral cortex.
Description: as §1

What is called Km is the substrate concentration at which the rate is half of its maximum.

Chain of Beta-1 adrenergic receptor (Rattus norvegicus), P18090 (P18090 whole entry): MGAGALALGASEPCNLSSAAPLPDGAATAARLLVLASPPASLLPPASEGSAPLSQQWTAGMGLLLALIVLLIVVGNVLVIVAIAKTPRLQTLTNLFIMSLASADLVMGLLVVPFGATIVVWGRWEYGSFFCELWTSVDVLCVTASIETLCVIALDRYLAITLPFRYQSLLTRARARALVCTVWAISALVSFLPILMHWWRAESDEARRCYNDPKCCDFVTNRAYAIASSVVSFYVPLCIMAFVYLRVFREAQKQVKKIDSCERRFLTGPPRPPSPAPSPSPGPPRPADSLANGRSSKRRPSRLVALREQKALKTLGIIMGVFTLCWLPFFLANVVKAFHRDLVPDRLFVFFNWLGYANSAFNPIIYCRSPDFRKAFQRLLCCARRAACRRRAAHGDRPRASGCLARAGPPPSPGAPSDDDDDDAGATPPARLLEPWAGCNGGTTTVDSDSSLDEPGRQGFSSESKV

Consider “Beta-1 adrenergic receptor (Rattus norvegicus), P18090”, for which the Michaelis constant (Km) was determined as 28 µM in data set [1] and 25 µM in data set [2].
